Test results as given in the supplement of paper PMC9170038.

System: MS2 coat protein
Assay: apparent KD of MS2 coat protein; designed switch direction (-1 OFF switch, 1 ON switch): -1; higher = weaker reporter binding
Summary of the method: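 Each step of the titration lasted 0.8–1.5 h at the lowest concentration and 10–20 min at the highest. The protein, SNAP-549-labelled MS2 coat protein, went from 0.7 or 1.5 nM doubling to 3 µM over RNA switches transcribed on Illumina chips by stalled E. coli RNA polymerase. Normalised cluster fluorescence was curve-fitted, and the per-design median over clusters is given as apparent KD.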

[1] = input ligand: microRNA oligo, concentration not stated
[2] = Eterna round: R95, input ligand: microRNA oligo, concentration not stated
[3] = Eterna round: R95, input ligand: FMN 200 uM
[4] = Eterna round: R95, input ligand: none

Sequence | apparent KD of MS2 coat protein (input ligand: FMN 200 uM) [nM] | apparent KD of MS2 coat protein [1] [nM] | apparent KD of MS2 coat protein (input ligand: none) [nM] | other results
GCACGGAGUGCAGGAUAUCUGUGCGAUUAGCUCAGAGAAGGGCACAUGAGGAUCACCCAUGUGUAUAAAACACAAAAUCCGUGC [Eli exng1 - 066] (Eterna round: R96, puzzle: Exclusion NG 1) | 22.1 | 10.2 | 14.5 | 
GCAGACGUAGUGAGGAUAUGCUCUACCUCGGUAGAGCAGAAGGCACAUGAGGAUCACCCAUGUGGCUCCUCAUU [Omei Ex4B B22] (Eterna round: R97, puzzle: Brourd's mod of Exclusion 4) | 16.8 |  | 15 | 
CUUUUGUGAGGAUAUUAGUAGUAAAAAAAUAAAAUUACUACUGAGAAGGCACAUGAGGAUCACCCAUGUUCCUU [salish99_ex4_r3_039] (puzzle: Exclusion 4) |  |  |  | apparent KD of MS2 coat protein [2]: 14.1 nM
AAAUAGCAUGAGGAUAUUGGACUGGAUUCAGUGCGAGAAGGCAUGACAUGAGGAUCACCCAUGUUGUGUUGGGA [EX6 #9] (Eterna round: R97, puzzle: Exclusion 6) | 42.6 |  | 17 | 
AGAGAAUACUCAGGAUAUGUGAAUAGAUAGAGAACAGAAGGGAGACAUGAGGAUCACCCAUGUGAAGUCUUGAGGCUGCAUGGA [Prohibition 23 - Jieux - Exclusion NG 1] (Eterna round: R96, puzzle: Exclusion NG 1) | 403 | 408 | 337 | 
UUUUAGUCAGGAUAUACAUGAGGAUCACCCAUGUAAAAUUUUAAUUUAAUUUUAAGGUGUAGAAGGGACCACCC [Ex3 #14] (Eterna round: R97, puzzle: Exclusion 3) | 31.2 |  | 35.5 | 
CUUUUGUGAGGAUAUCAGUAGUAAAAAAAUAAAAUUAUUACUGAGAAGGCACAUGAGGAUCACCCAUGUUCCUC [salish99_ex4_r3_028] (puzzle: Exclusion 4) |  |  |  | apparent KD of MS2 coat protein [2]: 36.3 nM
CAUAGUCUAGGAUAUUCACCUCUAUACAUGAGGAUCACCCAUGUCAAUGGCAGAUGACCAGAAGAAGGAGAAGUGG [Eternabot (L1) Solution 16] (Eterna round: R97, puzzle: Exclusion 5) | 90.2 |  | 84.8 | 
AAUUUACAUGAGGAUCACCCAUGUGAGGAUAUUGUAUAUUUAUAGAAAUGUGGGUGUGCAAGAAGGCACAUAGG [Alacar 2] (Eterna round: R97, puzzle: Exclusion 1) | 134 |  | 63.6 | 
UGUCAGAUGGUAGGAUAUUCAUAUCGAGUGACCCUUUCAUAACAUGAGGAUCACCCAUGUCGGUGGGAGAAGGGCCGUAUGGUG [salish99_ExNG02_R04_030] (Eterna round: R96, puzzle: Exclusion NG 2) |  | 22.7 |  | 
CCACCGCCGUCAGGAUAUAACAUGAGGAUCACCCAUGUGUGAAGCAUGAGAGACUCUAACAAGUGUUAGAAGGGACUUAUUGCG [Eternabot solution 36] (Eterna round: R96, puzzle: Exclusion NG 2) | 176 | 63.2 | 75.8 | 
GUACAACAUGAGGAUCACCCAUGUGAGGAUAUGCGAAUUUCAUCAAAAGAUGAAAUUUGCAGAAGGCACAGUAC [Omei Ex1 A8] (Eterna round: R97, puzzle: Exclusion 1) | 26.6 |  | 32.8 | 
GGAUCGAGUGUGAGGAUAUACCUAUGGAAACAUAGGUAGAAGGCACAUGAGGAUCACCCAUGUUCCAACGGUCC [Mat - Exclusion 4 - Eli Mod - D11] (Eterna round: R97, puzzle: Brourd's mod of Exclusion 4) | 715 |  | 90.6 | 
GUCACAUGGGUGUAGAAUCACAUGAGGAUCACCCAUGUGACUAACAAGCUUUUUGCUCGUCUUAUGUCUAUGUGAAG [Stov1/17-A3] (Eterna round: R97, puzzle: Sensor, turn-off variant 1) | 58.7 |  | 32.1 | 
GAGGUGUUAGGAUAUCGGAGAUGGAGAAGAACGGGAAGAGCCGAGAAGGAACAUGAGGAUCACCCAUGUAGGUG [JR_Exclu4_Sub030] (puzzle: Exclusion 4) |  |  |  | apparent KD of MS2 coat protein [3]: 326 nM; apparent KD of MS2 coat protein [2]: 270 nM; apparent KD of MS2 coat protein [4]: 696 nM
UGUUUACAUGAGGAUCACCCAUGUCAGGAUAUGAUAUAUAUAUGGAAACAUAUAUAUAUCAGAAGGGACUAGUG [Jieuxxlusion 1 - Jieux - Exclusion 1] (Eterna round: R97, puzzle: Exclusion 1) | 156 |  | 87.7 | 

Sequence | apparent KD of MS2 coat protein (input ligand: FMN 200 uM) [nM] | apparent KD of MS2 coat protein [1] [nM] | apparent KD of MS2 coat protein (input ligand: none) [nM] | other results
AUUUAGAGAGGAUAUAUAUUUUAAAACAUGAGGAUCACCCAUGUAAUUUUAUGGGAGUAAAUAGAAGGCUCAUUUA [JMFs Solution 2] (puzzle: Exclusion 5) |  |  |  | apparent KD of MS2 coat protein [3]: 54.3 nM; apparent KD of MS2 coat protein [2]: 52.8 nM; apparent KD of MS2 coat protein [4]: 53.1 nM
CUUAGACAUGAGGAUCACCCAUGUGAGGAUAUGAUGCGAAUAAGUAAGUAAUAAAGCAUCAGAAGGCACAUAUG [Mat - Mod of Hyphema D28] (puzzle: Exclusion 1) |  |  |  | apparent KD of MS2 coat protein [3]: 235 nM; apparent KD of MS2 coat protein [2]: 186 nM; apparent KD of MS2 coat protein [4]: 222 nM
GUCAGCUCGUGAGGAUAUGCACAUGAGGAUCACCCAUGUAAGAUCAAGCUGCUUCGGCAGCAAGUGCAGAAGGUACGAGCUGAC [ENG2/9-C1] (Eterna round: R96, puzzle: Exclusion NG 2) | 200 | 207 | 297 | 
UCGGCGCGAGGAUAUGCGGUUCCUGCUUCGGGCCGGAGCGUACAUGAGGAUCACCCAUGUAGAAGGCGCGCCGC [Apr-15 SS2-38] (puzzle: Exclusion 2) |  |  |  | apparent KD of MS2 coat protein [2]: 12.1 nM
AAGAGCAUCGGAGGAUAUGGAGCUGAAACGGCGCUAGAAGGCCGUGCAGUGUAACAUGAGGAUCACCCAUGUAGGGACCUCUAA [EX ng 1 4] (Eterna round: R96, puzzle: Exclusion NG 1) | 244 | 82.9 | 104 | 
GAGUUACAUGAGGAUCACCCAUGUGAGGAUAUGAGUCAGUCACGGUGACGUGGCUGACUCAGAAGGCACAAUGG [Mat - Exclusion 1 - JL Mod - D46] (Eterna round: R97, puzzle: Exclusion 1) | 256 |  | 380 | 
AGUAGUUACGCAGGAUAUGAGGAUCACCCAUAGAAGGAUAUCGAAAGAGAAGGUCUGAGGAUUACCCAGAAGGGCGUGACUACA [pwkr exNG2 2xF5 2xFMN.5] (Eterna round: R96, puzzle: Exclusion NG 2) | 647 | 113 | 136 | 
GGAAAACGCUGAGGAUAUGGAAGGAAAGGAAGACCAGAAGGCAGGGUCACACAACAUGAGGAUCACCCAUGUGUGUGUAGCGGA [exng1 ex3] (Eterna round: R96, puzzle: Exclusion NG 1) | 9.75 | 10.2 | 12.7 | 
CGAGCUGCUGUGAGGAUAUACCUGUGGGUGCGUGGGUAGAAGGCACAUGAGGAUCACCCAUGUCCUGCAGCUCG [salish99_bmx4_r4_105] (Eterna round: R97, puzzle: Brourd's mod of Exclusion 4) | 594 |  | 1060 | 
ACUCGACAUGAGGAUCACCCAUGUGAGGAUAUGGCCUGUAUGGCGUGAGCUGGCUCAAUAAGAAGGCGCGUGGG [salish99_ex1_r4_051] (Eterna round: R97, puzzle: Exclusion 1) | 235 |  | 188 | 
GCGCCAUCGUGAGAUGGCGUACCAACAUGAGGAUCACCCAUGUAGGAUAUCGAUUGCUUUGCAGUCGAGAAGGGCAUGAUAAGU [JL ENG3 3.76] (Eterna round: R96, puzzle: Exclusion NG 3) |  | 17.2 |  | 
UAAAUAAAUGUAGGAUAUCUGCACGAUUAGUGCAGAGAAGGACAUGAGGAUCACCCAUGUAUAGUAGCUUCGGCUACAAAUAAU [ENG1-C1] (Eterna round: R96, puzzle: Exclusion NG 1) | 89.9 | 51.9 | 71.2 | 
UUAUUAUAUGUAGGAUAUGCAUAUUAUUAUUAUGCAGAAGGACAUGAGGAUCACCCAUGUAUAUUAUUAUUAUAUGUUAUAUAU [Title] (Eterna round: R96, puzzle: Exclusion NG 1) |  | 20.9 |  | 
CGUGCGUAUGUGAGGAUAUGCUGGUCCUUGGAUCAGCAGAAGGCACAUGAGGAUCACCCAUGUGGUGUCGUACA [salish99_Bmod_Ex4_016] (puzzle: Brourd's mod of Exclusion 4) |  |  |  | apparent KD of MS2 coat protein [2]: 198 nM
CAUACACAUGAGGAUCACCCAUGUGAGGAUAUGCGUACGUUGUCCGUAGGCGACGUGCGCAGAAGGCGCGUGAG [JL-ex1-3.14 Eli mod] (puzzle: Exclusion 1) |  |  |  | apparent KD of MS2 coat protein [2]: 45.3 nM
